The target of assay [1] is recombinant human IgE, SE44 (human) (UniProt P01854). The assay can be described thus: ELISA titration on plate-coated SE44 (human IgE); Fab detected with biotin-sheep anti-human Fd and Neutra-avidin-AP (Example 6).
Assay [2] shares this target. Described as above. The source holds these as a separate data set.

Where two headings read alike, the source gives them in different places.

The record followed here is patent publication US20060251644A1.

B1: murine TES-C21 Fab (Fab, from another filing, V domains shown)
VH: QVQLQQSGAELMKPGASVKISCKTTGYTFSMYWLEWVKQRPGHGLEWVGEISPGTFTTNYNEKFKAKATFTADTSSNTAYLQLSGLTSEDSAVYFCARFSHFSGSNYDYFDYWGQGTSLTVSS
VL: DILLTQSPAILSVSPGERVSFSCRASQSIGTNIHWYQQRTDGSPRLLIKYASESISGIPSRFSGSGSGTEFTLNINSVESEDIADYYCQQSDSWPTTFGGGTKLEIK
In the case of B1, the EC50 (read off the curve) in assay [1] was found to be 0.05 µg/mL; in assay [2], 0.04 µg/mL.
